The results in this text go back to PMC9984183 (Science Advances, 2023).

This experiment has as its target human secretory pathway Ca2+/Mn2+ ATPase 1, isoform 1a (SPCA1a), PA-tagged (human, UniProt P98194). Put plainly: SEC.

Sequence of human secretory pathway Ca2+/Mn2+ ATPase 1, isoform 1a (SPCA1a), PA-tagged (P98194 whole entry, canonical isoform): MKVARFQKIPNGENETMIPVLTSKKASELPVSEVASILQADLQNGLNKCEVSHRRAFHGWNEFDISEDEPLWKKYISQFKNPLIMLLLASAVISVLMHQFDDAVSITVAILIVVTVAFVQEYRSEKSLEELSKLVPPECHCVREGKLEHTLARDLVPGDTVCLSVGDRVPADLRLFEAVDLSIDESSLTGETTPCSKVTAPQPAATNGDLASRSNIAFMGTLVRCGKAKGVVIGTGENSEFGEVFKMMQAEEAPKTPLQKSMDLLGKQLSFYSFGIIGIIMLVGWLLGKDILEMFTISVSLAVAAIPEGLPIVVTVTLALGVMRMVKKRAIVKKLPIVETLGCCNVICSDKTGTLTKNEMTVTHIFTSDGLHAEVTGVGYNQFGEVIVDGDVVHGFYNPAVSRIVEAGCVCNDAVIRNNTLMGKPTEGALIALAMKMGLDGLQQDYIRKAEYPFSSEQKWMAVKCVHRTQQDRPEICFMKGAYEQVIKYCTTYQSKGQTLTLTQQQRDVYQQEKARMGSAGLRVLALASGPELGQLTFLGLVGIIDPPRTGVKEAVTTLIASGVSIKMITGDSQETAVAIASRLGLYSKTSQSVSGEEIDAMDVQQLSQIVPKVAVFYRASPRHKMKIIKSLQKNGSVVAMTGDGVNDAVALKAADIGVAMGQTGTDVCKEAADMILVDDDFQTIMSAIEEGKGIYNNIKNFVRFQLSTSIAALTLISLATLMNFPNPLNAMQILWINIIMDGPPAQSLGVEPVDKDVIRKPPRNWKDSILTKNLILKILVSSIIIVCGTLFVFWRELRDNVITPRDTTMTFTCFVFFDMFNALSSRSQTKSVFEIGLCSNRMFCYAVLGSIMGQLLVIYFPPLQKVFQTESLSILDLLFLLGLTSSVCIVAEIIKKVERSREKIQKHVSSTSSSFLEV

B1: nanobody 14 (Nb14), recombinant (VHH)
VHH: QVQLQESGGGLVQAGGSLRLSCAASGSIFGADWMGWYRQAPGKEREFVAGIGHGASTYYADSVKGRFTISRDNAKNTVYLQMNSLKPEDTAVYYCAVQYTQGWSGQYRSYDSLLYWGQGTQVTVSS
With B1, the binding result is “binds”.
